For assay [1], the system named is THP-1 cells. Briefly: NSG mice xenografted with THP-1 cells. The format is in vivo, mouse. The text has this:
FIGS. 7A-N. Blocking anti-LILRB3 antibody prevents monocytic AML development. (FIG. 7A) Epitope binning of 30 high-affinity IgGs. (FIG. 7B) CFU assay of mouse MLL-AF9 AML cells in the presence of above IgGs (n=3 independent experiments). (FIG. 7C) Binding affinities of the two IgGs from bin #3. (FIG. 7D) Upper: Schematic of treatment. Lower: Percentages of GFP^+ MLL-AF9 mouse AIL cells in peripheral blood (PB), bone marrow (BM), spleen (SPL), and liver (LV) of mice transplanted with AML cells expressing B3-FL or B3delICD and injected with IgG or anti-LILRB3 #1 N297A (n=3 independent mice). (FIG. 7E) Overall survival of mice transplanted with indicated AML cells as above. (FIG. 7F) CFU assay of MLL-AF9 mouse AML cells expressing B3-FL or B3delICD in the presence of IgG or anti-LILRB3 #1 N297A (n=3 independent experiments) (FIG. 7G) Upper: Schematic of treatment. Recipient mice were injected with mouse IgG or anti-mCD8 to deplete CD8 T cells. Lower: Percentages of GFP^+ MLL-AF9 mouse AML cells in peripheral blood (PB), bone marrow (BM), spleen (SPL), and liver (LV) of mice transplanted with AML cells expressing B3-FL or B3delICD and injected with IgG or anti-LILRB3 #1 LALAPG (n=4 mice). […] The data are presented as mean±s.e.m, and p values were calculated by two-tailed t-test except for FIG. 7E, FIG. 7H, FIG. 7J and FIG. 7M by log-rank test. […]

Assay [2] has as its system human AML cells (CD45+/CD33+). Briefly: M5 AML patient-derived xenograft in NSG mice (primary transplantation). The format is in vivo, mouse. The text has this:
(FIG. 8A) Upper: Schematic of treatment. NSG mice were transplanted with monocytic AML patient peripheral blood sample (depleted red blood cells) and given IgG or #1NA. […] (FIG. 8C) The percentages of human T cells in NSG mice treated as indicated in panel a (n=8 independent mice). (FIG. 8D) Overall survival of the NSG mice treated as indicated in panel a (n=8 independent mice). (FIG. 8E) Schematic of treatment. NSG mice were transplanted with monocytic AML cells (derived from BM of NSG mice engrafted with monocytic AML patient peripheral blood samples) with treatment of IgG or anti-LILRB3 #1 LALAPG. (FIG. 8F) Flow cytometry analyses of LILRB3 expression on human AML cells in the mouse bone marrow. (FIG. 8G) The percentages of human AML cells (CD45^+/CD33^+) in NSG mice after treatment of IgG or #1NA as indicated in panel e. (n=5 independent mice). (FIG. 8H) The percentages of human T cells in NSG mice treated as indicated in panel e (n=5 independent mice). (FIG. 8I), Survival of NSG mice treated as indicated in panel e (n=5 independent mice). The data are presented as mean s.e.m, and p values were calculated by two-tailed t-test except for d and i by log-rank test.
Primary human leukemia. The primary human AML samples was obtained from the University of Texas Southwestern Medical Center. […] For primary transplantation, leukemia cells isolated from donor peripheral blood was injected into irradiated NSG mice (200 cGy), and antibody or IgG was introduced intravenously 8 days after injection. For secondary transplantation, human leukemia cells from frozen BM of NSG mice that were engrafted with patient AML cells were transplanted into sublethally-irradiated NSG recipients.

B1: anti-LILRB3 #1 N297A: IgG #1 with Fc glycosylation N297A mutation, defective Fc-mediated effector functions (antibody, V domains shown)
VH: EVQLVESGGGVVQPGRSLRLSCAASGFTFSSYGMHWVRQAPGKGLEWVAFIRYDGSNKYYADSVKGRFTISRDNSKNTLYLQMNSLRAEDTAVYYCAKAGFSGWYYYGMDVWGQGTMVTVSS
VL: DIVMTQSPSSLSASVGDRLTITCRASQSISTYLNWYQQKPGKAPKLLIYGASSLQSGVPSRFSGSGSGTDFTLTISSLQPEDFATYFCQQSYGLPLTFGGGTKVDIK
For B1, the leukemia development entry in assay [1] (NSG mice, THP-1 xenograft, versus controls) is listed as “significantly delayed leukemia development”. Besides, the “LILRB3 signaling in THP-1 cells (NF-κB target gene expression by qPCR)” value in assay [1] (THP-1 cells from BM of xenografted NSG mice) was “decreased”. For the same molecule, in assay [2] (NSG mice), the “percentages of human autologous T cells” value is reported as “increased the percentages of human autologous T cells”. Further, the “AML burden in peripheral blood, bone marrow, spleen, and liver” value in assay [2] (versus IgG) is “significantly lower AML burden”. For the same molecule, the survival entry in assay [2] (versus control IgG) is listed as “significant survival advantage”.
